Source: the domain aggregation screens of Martell et al. (2025)

assay: soluble fraction after stress (log2 fold change); higher = more stays soluble; pooled small domains, quantitative proteomics; conditions: stress: pH 4
Procedure, shortened: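 With high-throughput quantitative proteomics, pooled custom libraries of small protein domains were measured after pH 4 stress. Each domain's soluble amount after the stress gives a fold change taken as aggregation propensity. Higher log2 values mean more of the domain stayed soluble.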

Row | Sequence | soluble fraction (log2)
1 | HMGLQRLTVSPEDAGVRIDKYLAEQLPDITRSYLQKLLKDGSVQMNGKPVKASTKTAVGAVIALTIPEP | -0.157
2 | HMNKLKALREEQGLSMMEIAKQLNMPYTTYVNYEKGTREPNSEMLIKFSKFFNVTIDYLIGNSEQKN | -0.129
3 | HMLKNYATPEQRAQLDMLKDKGIIGENELMQLGKYPSQDKASEVLENHADAVKMLDSDEISNRAEAIRSHD | 0.22
4 | HMNFGEVLQTKRKSMGLTQEDLADKLFVSSETISNWETNKTTPDIDNVIRISQLFDISLNNLLL | -0.89
5 | HMKQNRNLPVQIINNGKIIESVMTEFNLDIDWVYSEAKRLGYKNIKDIFYAGINRDGQFFIVPLF | -1.35
6 | HMEKKSKLVLAVLQGSDSDNTIRNLNERGFMVTVLSSTGGFLKKKSTTVMIGVEEDRLEEALDVLQKYAG | -0.617
7 | HMIDDPTAVILRLVSEKQVIRRDDVVKALSVTPQKAYRLLKTMTTGGLLTRSGARRTTVYGLPDARER | 0.22
8 | HMVSTEDEISDKLLLDFALEKLSENEKQIVKLRYYNSLTQSKTAEILNMTQVQVSRSEKKILAKLRGII | 0.0807
9 | HMQVTGLTAENAHRVTMIREKGTDHPPVPFHFRKEHHGTGNYVHLYGNPEDRNELHSRDFKDWEAVAFK | 0.319
10 | HMLRMTRNRQKLVEVLMESGRPLSADEIREAAGFASTDLVTVYRNLEAFQSAGLLQRIPLENGSQLFELT | -0.269
11 | HMFTLDIGTIIRNRRLELNLTLEEIGNAVGVSKSTVQKWENGFISNMKRDKISALAKVLNINPVTLITGEY | -0.711
12 | HMEEGKVKRMAMDMVDAFYDKVSAMVDDNNDLGRSVVDAWDDEEENPPEYMLDDETRAILVNAGKIEPE | 0.0884
13 | HMSVPVDEVLAALTQKLTDLRTQAMAAKDFSAVDALKAALTEAGVEVRMSKTGVELIAGPRVDAKKLGTL | -0.268
14 | HMKDLDSLSQEAKSVYAVFSDKPIHIDDIKRKTGLDFSKLFKAVTELELAELISSGEGKMYSL | -0.858
15 | HMATVTVPNLKGMTPSGAESALAELNLKGAVGDSVESNDVENGKVASQDQAAGSDAKEGDTITYHLSS | -0.103
16 | HMSDRLRPGDMVVVVGKKKRYPVFSAFDIDFVEAGDVGKVLTVKREEVVVGFPKKGEGTFTPSELNIAH | 0.00331
17 | HMKQQAYEQGKAAYQSGDWLRAVTQLGQVKEAGEKNGEVDHLLGNAYMKLGQFESAAYAYNSALEDVA | 0.123
18 | HMNEMSDTITRLLDAAETGIRLRGYHAVSFRDLAEELGIKSSSVHYYFRQKEDLGLAVVERY | -0.185
19 | HMRIWTISDLYKNVEDKKVSLAVFSEDNDSNKVNVLDINGEEHSVNLLKADLPTLVDLFRKNDVRFAVRSN | 0.259

Row | Sequence | soluble fraction (log2)
20 | HMLPAGSDAILRYLSSGAVKGIGVATAARIVEKFGDETLRILEEEPGRLAEIKGITAAKAKAIGEAFAGQ | -0.143
21 | HMSKPILSFVDPEKDPSHYVKRYITEETYKDWFSEHFPDYTLYEGIGITQEEYRNIVNELTKP | -1.7
22 | HMYTVRDGDTVFGILNRFGVSLDELLSLNPELSNGLKAGMVLKIK | -1.13
23 | HMKYTEEIFNILSRGGFISANSVSSTVKRYYDALEEDFTEYYDYYKGIGFYLEAGNGYYLFTR | -0.064
24 | HMFTLNEIIGQKIRNARISAGLTLDELSKMTGISAAQLSSLETGYRRANIDTLYAIAKAIGIDVSNLLKY | -0.626
25 | HMSQEAKLAMPVTDLRLSARTLNALELANIRTVRDLVSHTEEQLLELRNFGETALAEVKEKLAALGLRLGM | -0.436
26 | HMYIDLHEIWKSLTDEEQTVVKLLETEPAHVDTLIENSQIPASRILATLTLLEVRGIVKRLPGRMFSLAD | -0.571
27 | HMGGLAEGTKITLQNTVNVRASMGEDAEKIGTAYAGEKVTVIMSYAEGWTKVTWNDKTGYIKTSLL | -1.04
28 | HMFGDQMQSYLSRLSQIDVDIIALKYGDNFTYREIGLILEMSEDSVRQRAVRARKKLETMIQKG | -1.29
29 | HMRAEPNSNYSLAIIYKNRYDIAVKKKDAVKEVEYGKMVYEYLNKYVVLSGNKSAKYKKILNYFSSY | -0.445
30 | HMEPVFSDPARQTLYQEVMELPAKYRVPLYLYYYEGYKVDEVGELLGLNASTVQTRLARARAKLKIQL | -0.17
31 | HMDRQIQITVAENEAGQRLDAFLAAKIPDMSRSYIQKLIEDGLILVNGQSTKGKVKTYSGMNIEVYMPE | 0.22
32 | HMEPESTMIEISETLTNERLDRYLATKLPNVSRGGIQRLLREGNILVNGKKAKPTQHPVAGQKIEITWPNP | -0.11
33 | HMTYGYFELKAKNLDSLKQFLKGIAQVESIEEENNGLKVFLKNELESEELSEKLAEAKIFVSHLAKKK | -0.617
34 | HMDSYADVLSDYRGKYKTNTISGLKGLRDKIREDMLAAADSLDFEKAALLRDEMNDLNKKIELKEKT | -0.486
35 | HMSQIAENNQKYVGTIQKVLVEGTSKNNDDMLTGRTDSNKVVIFEGDKKLIGNMVELKIVSEHMWYLKGEL | -0.0811
36 | HMETYHIQMKGDPSKGIVGFSQLDMVIDKIKRLETEKGIAPYELEVLDGDTMEKYSGEEFLTMHE | -1.21
37 | HMEVEIPSREALLGLVQKHLKPVSFDEFVSHFKLGDERQQVGIKRRLRAMERDGQLVYTKANSYGLPDRM | -0.197
38 | HMKNDNIHMMASKINGIALEVGVLTPGMHPKNDLSEGEVGYIVTNLKTTREAKVGDTVTLAKKPAATPLPG | 0.187
